{"source": "patent US20150218551A1", "biological_target": "LR1-C1 envelope protein (Env variant of HIV-1 AC10) on virions (HIV-1)", "assay": "virion capture assay: virions titrated on plates coated with 4E10, bound virus measured by p24 ELISA; reference AC10 wild-type virions"}
{"substance": "4E10 antibody", "values": [{"measurement": "fold increase in affinity against the AC10 wild-type variant", "value": 4, "unit": "fold"}]}
